Results on one substance are retold here after PMC5869396.

The assay deals with recombinant Shiga toxin-2a B subunit (rStx2aB), C-terminal 6xHis tag (E. coli O157:H7 strain EDL933). Description: SEC; rStx2aB on Superdex-75 16/60 in PBS, 1 mL/min. Background: In gel filtration, larger molecules generally elute earlier.

Regarding “recombinant Shiga toxin-2a B subunit (rStx2aB), C-terminal 6xHis tag (domain or fragment)”, the stoichiometry N was 5.

In general, stoichiometry N refers to the number of molecules, sites or subunits per partner or assembly.
